Results from publication PMC6536502, “Structural insights into DNA recognition by AimR of the arbitrium communication system in the SPbeta phage” (Cell Discovery, 2019).

T1: AimR-V129C (Bacillus phage SPbeta, UniProt O64094 1-386, C71S;C107S;C213S;C275S;C304S;C347S;V129C)
T1 sequence: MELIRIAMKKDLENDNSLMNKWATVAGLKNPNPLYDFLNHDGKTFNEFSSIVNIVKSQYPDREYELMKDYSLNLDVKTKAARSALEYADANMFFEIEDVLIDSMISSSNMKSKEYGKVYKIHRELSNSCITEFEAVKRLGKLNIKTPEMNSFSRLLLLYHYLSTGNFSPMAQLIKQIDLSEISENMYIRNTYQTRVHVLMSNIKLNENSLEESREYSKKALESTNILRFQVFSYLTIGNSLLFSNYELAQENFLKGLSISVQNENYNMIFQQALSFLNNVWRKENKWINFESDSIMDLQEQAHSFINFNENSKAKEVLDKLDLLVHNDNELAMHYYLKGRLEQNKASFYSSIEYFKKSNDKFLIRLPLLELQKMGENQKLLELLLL

T2: AimR (Bacillus phage SPbeta, UniProt O64094 1-386)
T2 sequence: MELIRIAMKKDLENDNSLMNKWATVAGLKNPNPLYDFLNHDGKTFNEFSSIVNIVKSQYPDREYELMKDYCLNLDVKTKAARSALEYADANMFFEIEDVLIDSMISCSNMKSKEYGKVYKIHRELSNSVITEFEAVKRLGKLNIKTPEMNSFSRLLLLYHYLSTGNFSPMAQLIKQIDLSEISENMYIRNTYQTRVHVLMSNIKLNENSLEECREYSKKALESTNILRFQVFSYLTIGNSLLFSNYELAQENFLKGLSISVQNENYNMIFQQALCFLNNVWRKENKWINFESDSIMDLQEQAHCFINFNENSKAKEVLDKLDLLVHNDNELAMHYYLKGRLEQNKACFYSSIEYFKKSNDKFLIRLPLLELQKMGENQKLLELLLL

B1: AimR protein from the SPbeta phage, full length, wild type (natural protein, UniProt O64094 1-386, looked up)
chain: MELIRIAMKKDLENDNSLMNKWATVAGLKNPNPLYDFLNHDGKTFNEFSSIVNIVKSQYPDREYELMKDYCLNLDVKTKAARSALEYADANMFFEIEDVLIDSMISCSNMKSKEYGKVYKIHRELSNSVITEFEAVKRLGKLNIKTPEMNSFSRLLLLYHYLSTGNFSPMAQLIKQIDLSEISENMYIRNTYQTRVHVLMSNIKLNENSLEECREYSKKALESTNILRFQVFSYLTIGNSLLFSNYELAQENFLKGLSISVQNENYNMIFQQALCFLNNVWRKENKWINFESDSIMDLQEQAHCFINFNENSKAKEVLDKLDLLVHNDNELAMHYYLKGRLEQNKACFYSSIEYFKKSNDKFLIRLPLLELQKMGENQKLLELLLL
notes: AimR of Bacillus phage SPbeta, full length (DBD residues 1-48, CTD residues 49-386), codon-optimized cDNA in pET21b; also called SPbeta AimR; wild-type AimR; source: E. coli BL21 (DE3), purified (Ni-NTA, anion exchange Source 15Q, SEC Superdex-200)

What was measured:
[1] = biological target: B1; assay: crystal structure; AimR (~270 µM) incubated with arbitrium peptide GMPRGA (2.7 mM), PDB 6JG9; details: both partners purified
[2] = biological target: the molecule itself; assay: crystal structure; full-length AimR with the 31 bp DNA fragment and 5 mM MgCl2, 2.10 Å, PDB 6JG8
[3] = biological target: the molecule itself; assay: FRET or BRET; single-molecule FRET in solution between Alexa488 and Cy5 on Cys129 of the protomers, ~150 pM labelled AimR V129C, 25 °C, pH 7.4, 20 mM phosphate, 100 mM NaCl, 0.01% Tween 20; peptides titrated in
[4] = biological target: the molecule itself; assay: cross-linking; disulfide cross-linking of Cys166 by o-phenanthroline copper complex, AimR-N166C ~1 mg/ml, room temperature 30 min, nonreducing SDS-PAGE; alone or with DNA, unrelated peptide or arbitrium peptide
[5] = biological target: T1, AimR-V129C; assay: smFRET; 1 uM DNA; EMSA: 25 mM Tris-HCl pH 8.0, 150 mM NaCl, 5 mM MgCl2, 5 mM DTT, 0.1 mg/ml BSA, 10% glycerol, 50 ug/ml salmon sperm DNA, 4 C, 15 min; smFRET: 20 mM phosphate pH; details: protein: recombinant; tags: 6xHis removed by drICE; Alexa Fluor 488 and Cy5 on C129; chain copies: 2
[6] = biological target: T2, AimR; assay: EMSA; 5 mM Mg2+; EMSA: 25 mM Tris-HCl pH 8.0, 150 mM NaCl, 5 mM MgCl2, 5 mM DTT, 0.1 mg/ml BSA, 10% glycerol, 50 ug/ml salmon sperm DNA, 4 C, 15 min; smFRET: 20 mM phosphate pH; details: protein: recombinant; tags: C-terminal 8xHis; chain copies: 2; label: FAM

Row | Binder | binding signal [6] | also measured
1 | GMPRGA (mature arbitrium hexapeptide of the SPbeta phage, cut from the precursor encoded by the aimP gene; also called arbitrium hexapeptide; GMPRGA peptide; source: synthetic peptide, bought: GLS Biochem) [arbitrium peptide GMPRGA] | – | binding result [1]: binds
2 | B1 | – | stoichiometry N [2]: 2
3 | AimR-V129C (C71S/C107S/C213S/C275S/C304S/C347S/V129C), labelled with Alexa Fluor 488 and Cy5 (natural protein, SPbeta phage, UniProt O64094 1-386, looked up, Alexa Fluor 488 C5 maleimide or Cy5 maleimide conjugated to Cys129 (double-labeled protein fraction collected), AimR of Bacillus phage SPbeta, full length with six Cys-to-Ser changes and V129C, in pET15b; His tag removed with drICE as for the other mutant proteins; also called dye-labeled protein; source: E. coli BL21 (DE3), purified as the mutant proteins; dye-conjugated and purified on a Source-Q column) MELIRIAMKKDLENDNSLMNKWATVAGLKNPNPLYDFLNHDGKTFNEFSSIVNIVKSQYPDREYELMKDYSLNLDVKTKAARSALEYADANMFFEIEDVLIDSMISSSNMKSKEYGKVYKIHRELSNSCITEFEAVKRLGKLNIKTPEMNSFSRLLLLYHYLSTGNFSPMAQLIKQIDLSEISENMYIRNTYQTRVHVLMSNIKLNENSLEESREYSKKALESTNILRFQVFSYLTIGNSLLFSNYELAQENFLKGLSISVQNENYNMIFQQALSFLNNVWRKENKWINFESDSIMDLQEQAHSFINFNENSKAKEVLDKLDLLVHNDNELAMHYYLKGRLEQNKASFYSSIEYFKKSNDKFLIRLPLLELQKMGENQKLLELLLL | – | binding result [3]: binds
4 | AimR-N166C (C71S/C107S/C213S/C275S/C304S/C347S/N166C) (natural protein, SPbeta phage, UniProt O64094 1-386, looked up, AimR of Bacillus phage SPbeta, full length with six Cys-to-Ser changes and N166C, in pET15b; His tag removed with drICE as for the other mutant proteins; source: E. coli BL21 (DE3), purified as the mutant proteins (gel filtration)) MELIRIAMKKDLENDNSLMNKWATVAGLKNPNPLYDFLNHDGKTFNEFSSIVNIVKSQYPDREYELMKDYSLNLDVKTKAARSALEYADANMFFEIEDVLIDSMISSSNMKSKEYGKVYKIHRELSNSVITEFEAVKRLGKLNIKTPEMNSFSRLLLLYHYLSTGCFSPMAQLIKQIDLSEISENMYIRNTYQTRVHVLMSNIKLNENSLEESREYSKKALESTNILRFQVFSYLTIGNSLLFSNYELAQENFLKGLSISVQNENYNMIFQQALSFLNNVWRKENKWINFESDSIMDLQEQAHSFINFNENSKAKEVLDKLDLLVHNDNELAMHYYLKGRLEQNKASFYSSIEYFKKSNDKFLIRLPLLELQKMGENQKLLELLLL | – | stoichiometry N [4]: 2
5 | 37 bp DNA (dsDNA) DNA 1: ATCACTTAAATATTAGGTTTTAATAACATCTAGTGAT DNA 2: ATCACTAGATGTTATTAAAACCTAATATTTAAGTGAT | – | binding result [5]: binds
6 | C2A (dsDNA) DNA 1: AATTAAATATTAGGTTTTAATAACATCTAGT DNA 2: ACTAGATGTTATTAAAACCTAATATTTAATT | ~8 fold lower binding than WT DNA | –
7 | C2G (dsDNA) DNA 1: AGTTAAATATTAGGTTTTAATAACATCTAGT DNA 2: ACTAGATGTTATTAAAACCTAATATTTAACT | ~9 fold lower binding than WT DNA | –
8 | A1T/T31'A (dsDNA) DNA 1: TCTTAAATATTAGGTTTTAATAACATCTAGT DNA 2: ACTAGATGTTATTAAAACCTAATATTTAAGA | ~7 fold lower affinity than WT DNA | –
9 | A1G/T31'C (dsDNA) DNA 1: GCTTAAATATTAGGTTTTAATAACATCTAGT DNA 2: ACTAGATGTTATTAAAACCTAATATTTAAGC | ~19 fold lower affinity than WT DNA | –
10 | C2T (dsDNA) DNA 1: ATTTAAATATTAGGTTTTAATAACATCTAGT DNA 2: ACTAGATGTTATTAAAACCTAATATTTAAAT | ~42 fold lower binding than WT DNA | –
